Test results as given in publication PMC5399792.

Tests used:
[1] = target: T1, influenza B polymerase (PA-PB1-PB2 heterotrimer, FluB) (Influenza B virus, UniProt Q5V8Z9;Q5V8Y6;Q5V8X3 1-726;1-752;1-770); experiment: fluorescence anisotropy; 1:1 stoichiometry; details: protein: recombinant, copies: 1;1;1
[2] = target: T1, influenza B polymerase (PA-PB1-PB2 …); experiment: X-ray crystallography (3.8 A); details: protein: recombinant, copies: 1;1;1
[3] = target: T1, influenza B polymerase (PA-PB1-PB2 …); experiment: FRET / fluorescence titration; details: protein: recombinant; copies: 1;1;1; label: 3'-FAM-Ex-5 on v5'; 5'-Cy3 on v3' (implied by FRET)
[4] = label: FAM-Ex-5, 5' hook hairpin on polymerase

## AGUAGUAACA (ssRNA) [v5' 1-10]
[1]; label: 3'-FAM-Ex-5, 5' hook hairpin on polymerase
  Kd: < 10 nM

## AGUAGUAACAAGAGGGUA (ssRNA) [v5' 1-18]
[1]; [4]
  Kd: < 10 nM

## AGCAGAAGCAGAGGUAUA (ssRNA) [c5' 1-18]
[1]; [4]
  Kd: < 10 nM

B1: vRNA promoter v5' 1-14 + v3' 1-18 (crystal) (structured_RNA)
RNA 1: AGUAGUAACAAGAG
RNA 2: UAUACCUCUGCUUCUGCU
modifications: 5'-monophosphate on v5'
[2]
  binding result: binds

## UACCCUCUUGUUACUACU (ssRNA) [c3' 1-18]
[1]; label: FAM-Ex-5, single strand
  Kd: < 10 nM

## UAUACCUCUGCUUCUGCU (ssRNA) [v3' 1-18]
[1]; label: 5'-FAM-Ex-5, single strand
  Kd: < 10 nM

## AAUCUAUAAUAGC (ssRNA, 5'-m7Gppp cap) [capped 13-mer primer]
[2]; single strand
  binding result: binds

B2: v5' 1-10 + v3' 1-18 (mixed)
RNA 1: AGUAGUAACA
RNA 2: UAUACCUCUGCUUCUGCU
[3]
  binding result: binds
